# Test results from patent US20180258163A1 (Chugai, published 2018).
# Where a chain is given by its changes, count along the chain named.
# T1: soluble human FcγRIIb (human, UniProt P31994 43-217, limits assumed)
# T1 construct: soluble His-tagged form; also called hFcγRIIb
# T1 sequence (looked up): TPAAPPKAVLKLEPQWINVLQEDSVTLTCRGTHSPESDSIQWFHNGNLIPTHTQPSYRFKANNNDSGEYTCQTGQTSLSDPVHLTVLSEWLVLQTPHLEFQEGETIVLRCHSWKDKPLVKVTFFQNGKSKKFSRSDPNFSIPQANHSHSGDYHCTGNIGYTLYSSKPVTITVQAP
# B1: Ab1H-P844/Ab1L (antibody, human IgG1, kappa, name in EU numbering)
# heavy: QVQLVESGGGLVQPGGSLRLSCAASGFTLSNHDMTWVRQAPGKGLEYVSIINTYGNHWYANWASGRFTISRDNSKNTVYLQIDSLRAEDTATYYCARETHHGSSGIDHWGQGTLVTVSSASTKGPSVFPLAPSSKSTSGGTAALGCLVKDYFPEPVTVSWNSGALTSGVHTFPAVLQSSGLYSLSSVVTVPSSSLGTQTYICNVNHKPSNTKVDKKVEPKSCDKTHTCPPCPAPELLGGDSVFLFPPKPKDTLMISRTPEVTCVVVDVSHEDPEVKFNWYVDGVEVHNAKTKPREEQYNATYRVVSVLTVLHQDWLNGKEYKCKVSNKALPAPIEKTISKAKGQPREPQVYTLPPSREEMTKNQVSLTCLVKGFYPSDIAVEWQSNGQPENNYKTTPPVLDSDGSFFLYSKLTVDKSRWQQGNVFSCSVMHEALHNHYTQKSLSLSP
# light: DIQMTQSPSSVSASVGDRVTITCQASESIYSGLAWYQQKPGQPPKLLIYDHSTLASGVPSRFSGSGSGTEYALTISSLQPEDFATYYCQHADYAHHSDNVFGGGTKVEIKRTVAAPSVFIFPPSDEQLKSGTASVVCLLNNFYPREAKVQWKVDNALQSGNSQESVTEQDSKDSTYSLSSTLTLSKADYEKHKVYACEVTHQGLSSPVTKSFNRGEC
# notes: copies: 2 + 2
# B2: Ab1H-P848/Ab1L (antibody, human IgG1, kappa, name in EU numbering)
# heavy: B1 heavy with Q384E, S417R
# light: B1 light
# notes: copies: 2 + 2
# B3: Ab1H-P937/Ab1L (antibody, human IgG1, kappa, name in EU numbering)
# heavy: B1 heavy with E274R, Q384E
# light: B1 light
# notes: copies: 2 + 2
# B4: Ab1H-P906/Ab1L (antibody, human IgG1, kappa, name in EU numbering)
# heavy: B1 heavy with Q384E, G387R
# light: B1 light
# notes: copies: 2 + 2
# B5: Ab1H-P921/Ab1L (antibody, human IgG1, kappa, name in EU numbering)
# heavy: B1 heavy with P333R, Q384E
# light: B1 light
# notes: copies: 2 + 2
# B6: Ab1H-P919/Ab1L (antibody, human IgG1, kappa, name in EU numbering)
# heavy: B1 heavy with P331R, Q384E
# light: B1 light
# notes: copies: 2 + 2
# B7: Ab1H-P920/Ab1L (antibody, human IgG1, kappa, name in EU numbering)
# heavy: B1 heavy with A332R, Q384E
# light: B1 light
# notes: copies: 2 + 2
# B8: Ab1H-P914/Ab1L (antibody, human IgG1, kappa, name in EU numbering)
# heavy: B1 heavy with Q384E, D401R
# light: B1 light
# notes: copies: 2 + 2
# B9: Ab1H-P931/Ab1L (antibody, human IgG1, kappa, name in EU numbering)
# heavy: B1 heavy with N288R, Q384E
# light: B1 light
# notes: copies: 2 + 2
# B10: Ab1H-P846/Ab1L (antibody, human IgG1, kappa, name in EU numbering)
# heavy: B1 heavy with Q384E, Q388K
# light: B1 light
# notes: copies: 2 + 2
# B11: Ab1H-P910/Ab1L (antibody, human IgG1, kappa, name in EU numbering)
# heavy: B1 heavy with L311R, Q384E
# light: B1 light
# notes: copies: 2 + 2
# B12: Ab1H-P932/Ab1L (antibody, human IgG1, kappa, name in EU numbering)
# heavy: B1 heavy with H287R, Q384E
# light: B1 light
# notes: copies: 2 + 2
# B13: Ab1H-P905/Ab1L (antibody, human IgG1, kappa, name in EU numbering)
# heavy: B1 heavy with Q384E, N386R
# light: B1 light
# notes: copies: 2 + 2
# B14: Ab1H-P909/Ab1L (antibody, human IgG1, kappa, name in EU numbering)
# heavy: B1 heavy with Q384E, H437R
# light: B1 light
# notes: copies: 2 + 2
# B15: Ab1H-P849/Ab1L (antibody, human IgG1, kappa, name in EU numbering)
# heavy: B1 heavy with Q384E, Q420R
# light: B1 light
# notes: copies: 2 + 2
# B16: Ab1H-P923/Ab1L (antibody, human IgG1, kappa, name in EU numbering)
# heavy: B1 heavy with Q313R, Q384E
# light: B1 light
# notes: copies: 2 + 2
# B17: Ab1H-P912/Ab1L (antibody, human IgG1, kappa, name in EU numbering)
# heavy: B1 heavy with T309R, Q384E
# light: B1 light
# notes: copies: 2 + 2
# B18: Ab1H-P935/Ab1L (antibody, human IgG1, kappa, name in EU numbering)
# heavy: B1 heavy with G283R, Q384E
# light: B1 light
# notes: copies: 2 + 2
# B19: Ab1H-P915/Ab1L (antibody, human IgG1, kappa, name in EU numbering)
# heavy: B1 heavy with Q384E, S402R
# light: B1 light
# notes: copies: 2 + 2
# B20: Ab1H-P847/Ab1L (antibody, human IgG1, kappa, name in EU numbering)
# heavy: B1 heavy with Q384E, N391K
# light: B1 light
# notes: copies: 2 + 2
# B21: Ab1H-P924/Ab1L (antibody, human IgG1, kappa, name in EU numbering)
# heavy: B1 heavy with N317R, Q384E
# light: B1 light
# notes: copies: 2 + 2
# B22: Ab1H-P845/Ab1L (antibody, human IgG1, kappa, name in EU numbering)
# heavy: B1 heavy with Q384K
# light: B1 light
# notes: copies: 2 + 2
# B23: Ab1H-P854/Ab1L (antibody, name in EU numbering)
# heavy: B1 heavy with Q384E, L445R
# light: B1 light
# notes: copies: 2 + 2
# B24: Ab1H-P908/Ab1L (antibody, human IgG1, kappa, name in EU numbering)
# heavy: B1 heavy with Q384E, N436R
# light: B1 light
# notes: copies: 2 + 2
# B25: Ab1H-P928/Ab1L (antibody, human IgG1, kappa, name in EU numbering)
# heavy: B1 heavy with E295R, Q384E
# light: B1 light
# notes: copies: 2 + 2
# B26: Ab1H-P934/Ab1L (antibody, human IgG1, kappa, name in EU numbering)
# heavy: B1 heavy with V284R, Q384E
# light: B1 light
# notes: copies: 2 + 2
# B27: Ab1H-P852/Ab1L (antibody, human IgG1, kappa, name in EU numbering)
# heavy: B1 heavy with Q384E, S426K
# light: B1 light
# notes: copies: 2 + 2
# B28: Ab1H-P851/Ab1L (antibody, human IgG1, kappa, name in EU numbering)
# heavy: B1 heavy with Q384E, N423R
# light: B1 light
# notes: copies: 2 + 2
# B29: Ab1H-P926/Ab1L (antibody, human IgG1, kappa, name in EU numbering)
# heavy: B1 heavy with Q297R, Q384E
# light: B1 light
# notes: copies: 2 + 2
# B30: Ab1H-P930/Ab1L (antibody, human IgG1, kappa, name in EU numbering)
# heavy: B1 heavy with A289R, Q384E
# light: B1 light
# notes: copies: 2 + 2
# B31: Ab1H-P927/Ab1L (antibody, human IgG1, kappa, name in EU numbering)
# heavy: B1 heavy with E296R, Q384E
# light: B1 light
# notes: copies: 2 + 2
# B32: Ab1H-P917/Ab1L (antibody, human IgG1, kappa, name in EU numbering)
# heavy: B1 heavy with A329R, Q384E
# light: B1 light
# notes: copies: 2 + 2
# B33: Ab1H-P929/Ab1L (antibody, human IgG1, kappa, name in EU numbering)
# heavy: B1 heavy with P293R, Q384E
# light: B1 light
# notes: copies: 2 + 2
# B34: Ab1H-P918/Ab1L (antibody, human IgG1, kappa, name in EU numbering)
# heavy: B1 heavy with L330R, Q384E
# light: B1 light
# notes: copies: 2 + 2
# B35: Ab1H-P938/Ab1L (antibody, human IgG1, kappa, name in EU numbering)
# heavy: B1 heavy with P273R, Q384E
# light: B1 light
# notes: copies: 2 + 2
# B36: Ab1H-P925/Ab1L (antibody, human IgG1, kappa, name in EU numbering)
# heavy: B1 heavy with Y298R, Q384E
# light: B1 light
# notes: copies: 2 + 2
# B37: Ab1H-P850/Ab1L (antibody, human IgG1, kappa, name in EU numbering)
# heavy: B1 heavy with Q384E, Q421K
# light: B1 light
# notes: copies: 2 + 2
# Target: T1, soluble human FcγRIIb
# Test: SPR, Ab-IgE complex over captured hFcγRIIb, pH 7.4, 25C
# Procedure: Fc region variant-containing antibody binding assays between soluble human FcγRIIb (a.k.a. “hFcγRIIb”) and antigen-antibody complexes were performed using BIACORE® T200 (GE Healthcare). Soluble hFcγRIIb was produced in the form of a His-tagged molecule using methods known in the art. An appropriate amount of an anti-His antibody was fixed onto Sensor chip CM5 (GE Healthcare) by the amine coupling method using a His capture kit (GE Healthcare) to capture hFcγRIIb. Next, an antibody-antigen complex and a running buffer (as a reference solution) was injected, and interaction was allowed to take place with the hFcγRIIb captured onto the sensor chip. 20 mM N-(2-Acetamido)-2-aminoethanesulfonic acid, 150 mM NaCl, 1.2 mM CaCl₂, and 0.05% (w/v) Tween 20 at pH 7.4 was used as the running buffer, and the respective buffer was also used to dilute the soluble hFcγRIIb. To regenerate the sensor chip, 10 mM glycine-HCl at pH 1.5 was used. All measurements were carried out at 25° C. Analyses were performed based on binding (RU) calculated from sensorgrains obtained by the measurements, and relative values when the binding amount of P600 was defined as 1.00 are shown. To calculate the parameters, the BIACORE® T100 Evaluation Software (GE Healthcare) was used.
row,"relative binding (RU), P600=1.00 [fold]",Binder
1,1.24,B1
2,1.38,B2
3,0.21,B3
4,1.74,B4
5,-0.07,B5
6,-0.06,B6
7,0.01,B7
8,1.72,B8
9,0.68,B9
10,1.71,B10
11,1.73,B11
12,1.38,B12
13,1.34,B13
14,0.73,B14
15,2.21,B15
16,1.63,B16
17,0.24,B17
18,-0.06,B18
19,0.85,B19

row,"relative binding (RU), P600=1.00 [fold]",Binder
1,1.57,B20
2,2.08,B21
3,1.38,B22
4,1.93,B23
5,0.42,B24
6,0.2,B25
7,1.54,B26
8,1.4,B27
9,1.43,B28
10,-0.06,B29
11,-0.07,B30
12,0.25,B31
13,-0.05,B32
14,0.47,B33
15,-0.06,B34
16,-0.06,B35
17,-0.05,B36
18,2.22,B37
